# Experimental data as given in patent US20030216297A1, “Pharmaceutical composition” (SANKYO COMPANY, LIMITED, priority 2002, published 2003).
# Assay: Serum concentration of OCIF after intravenous injection in rats
# Type: in vivo
# Conditions: Wistar female rat, single i.v. dose 0.5 mg OCIF/kg, 6 hours after administration
# Method: Five-week old Wistar female rat (having a body weight of about 100 g) were made to abstain from food overnight. The preparation of OCIF and dextran sulfate prepared in either Preparation Example 1, Preparation Example 2 or Reference Example 1 which was to be tested was diluted to a concentration of 0.25 mg/ml with PBS (pH 7.4) containing 0.01% Polysorbate 80 to prepare an injectable solution, which was then administered to the tail of one of the test rats via a vein in a single dose at an injected level of 2 ml/kg body weight. 6 hours after administration, blood was taken from the heart of the rat. […]
# After stirring gently using a shaking machine (Micro plate mixer NS-P: manufactured by Iuchi Seiei-Do Co Ltd.), the absorbance of each well at a wavelength of 450 nm was measured using a micro plate reader (SPECTRA THERMO: manufactured by TECAN). The OCIF concentration in the tested serum was then calculated from a calibration curve created using the standard OCIF solution. The dose was calculated as the dose of OCIF per kg body weight (mg/kg) by measuring the concentration of OCIF in each injection prepared in 1(a) in a similar manner to the case of the serum.
# The OCIF in the serum obtained in 1(b) above was quantified for each sample according to the method described in 1(c) above.
substance,measurement,value
"Prep. 4: OCIF/DS5 complex: DS5 130 mg/ml, OCIF 6.5 mg/ml, 4 °C, pH 10.5, 72 h",Serum concentration (OCIF),370 ng/mL
